Patent US6890910B1, “Murd protein and gene of Pseudomonas aeruginosa” (Merck & Co., Inc., priority 1998, dated 2005)

Tests used:
[1] = target: recombinant MurD from E. coli (Escherichia coli, UniProt P14900); conditions: 350 μM UDP-N-acetyl-muramyl-L-alanine
Experimental: The ATP-dependent MurD activity was assayed by monitoring the formation of product ADP using the pyruvate kinase and lactate dehydrogenase coupled enzyme assay. The reaction was monitored spectrophotometrically.
Typically, the assay contained 100 mM BIS-TRIS-propane, pH 8.0, 200 μM NADH, 1 mM ATP, 20 mM PEP, 5 mM MgCl2, 1 mM DTT, 350 μM UDP-N-acetyl-muramyl-L-alanine, 1 mM D-glutamate, 33 units/ml of pyruvate kinase and 1660 units/ml of lactate dehydrogenase in a final volume of 200 or 400 μl. The mixture was incubated at 25° C. for 5 min and the reaction initiated by the addition of 1-10 μg of MurD.
Rates were calculated from the linear portions of the progress curves using the extinction coefficient for NADH, e=6220 cm^−1 M^−1. One unit of MurD activity is equal to 1 μmol of ADP formed per min at 25° C.

[2] = target: T1, recombinant MurD from P. aeruginosa (Pseudomonas aeruginosa, UniProt Q9HVZ9); experiment: ATP-dependent MurD activity, pyruvate kinase/lactate dehydrogenase coupled enzyme assay; assay type: biochemical; conditions: UDP-N-acetylmuramyl-L-ala 350 μM, D-glutamate 1 mM, ATP 1 mM, 200 μl at 25° C.
T1 construct: 6x His (pET-15b vector-encoded) (N); made in house; host or cells: E. coli BL21 (DE3)/pLysS
T1 sequence (Q9HVZ9 whole entry, looked up): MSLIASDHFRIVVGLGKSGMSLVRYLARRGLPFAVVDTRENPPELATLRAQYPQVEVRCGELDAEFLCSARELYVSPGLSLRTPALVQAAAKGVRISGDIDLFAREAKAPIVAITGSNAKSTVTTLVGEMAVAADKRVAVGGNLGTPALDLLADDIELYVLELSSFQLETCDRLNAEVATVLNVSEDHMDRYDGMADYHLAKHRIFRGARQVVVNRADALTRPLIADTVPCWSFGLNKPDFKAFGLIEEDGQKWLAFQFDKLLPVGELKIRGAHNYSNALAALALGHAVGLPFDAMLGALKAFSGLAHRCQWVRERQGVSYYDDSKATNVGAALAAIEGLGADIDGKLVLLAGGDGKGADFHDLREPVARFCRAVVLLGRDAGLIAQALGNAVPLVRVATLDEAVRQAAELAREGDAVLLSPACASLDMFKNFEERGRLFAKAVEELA
Source text: The reaction was monitored spectrophotometrically.

recombinant MurD from E. coli, sequence (P14900 whole entry): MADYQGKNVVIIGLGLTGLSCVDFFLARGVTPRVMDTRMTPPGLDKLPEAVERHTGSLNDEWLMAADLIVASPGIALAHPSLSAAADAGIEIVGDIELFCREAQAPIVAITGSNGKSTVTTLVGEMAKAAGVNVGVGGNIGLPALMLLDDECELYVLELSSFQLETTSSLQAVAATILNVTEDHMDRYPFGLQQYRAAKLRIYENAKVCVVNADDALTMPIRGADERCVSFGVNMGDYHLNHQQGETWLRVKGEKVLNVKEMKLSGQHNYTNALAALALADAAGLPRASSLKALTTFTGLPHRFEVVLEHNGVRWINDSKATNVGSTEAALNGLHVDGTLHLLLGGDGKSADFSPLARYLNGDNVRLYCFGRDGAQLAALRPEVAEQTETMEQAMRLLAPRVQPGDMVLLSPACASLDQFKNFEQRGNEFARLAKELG

Molecule: CC(=O)N[C@H]1C(OP(=O)(O)OP(=O)(O)OC[C@H]2O[C@@H](n3ccc(=O)[nH]c3=O)[C@H](O)[C@@H]2O)O[C@H](CO)[C@@H](O)[C@@H]1O[C@H](C)C(=O)N[C@H](C)C(=O)O (stereo partly drawn) [UDP-N-acetyl-muramyl-L-alanine]
- substrate inhibition [1]: substrate inhibition of the E. coli MurD occurs

B1: P. aeruginosa MurD: Recombinant UDP-N-acetylmuramyl-L-alanine:D-glutamate ligase of Pseudomonas aeruginosa, over-produced as His-tagged fusion protein in E. coli (protein, listed as Pseudomonas aeruginosa)
chain: T1 sequence (Q9HVZ9 whole entry, looked up)
modifications: His tag
notes: Recombinant UDP-N-acetylmuramyl-L-alanine:D-glutamate ligase of Pseudomonas aeruginosa, over-produced as His-tagged fusion protein in E. coli
- units ([2]; 0.0015 mg protein): 0.0047 µmol/min
- Specific activity [2]: 3.12 (μmol/min)/mg
